Each block holds one molecule with its values, some of them ahead of it.
Experiments:
[1] = target: Phaeodactylum tricornutum NADP+-specific isocitrate dehydrogenase 2 (PtIDH2), mature form without the signal and transit peptide (Phaeodactylum tricornutum CCAP 1055/1); test: SEC-MALS; Superdex 200 (10/300) Increase, 0.5 ml/min, 20 mM Tris-HCl, 10% glycerol, 300 mM NaCl, pH 7.5
[2] = target: Phaeodactylum tricornutum NADP+-specific isocitrate dehydrogenase 2 (PtIDH2), mature form without the signal and transit peptide (Phaeodactylum tricornutum CCAP 1055/1); test: SEC; Superdex 200 (10/300) Increase, 0.5 ml/min, 20 mM Tris-HCl, 10% glycerol, pH 7.5, 1,000 mM NaCl (high salt); sample incubated in that buffer before chromatography; tetramer to dimers
[3] = target: Phaeodactylum tricornutum NADP+-specific isocitrate dehydrogenase 2 (PtIDH2), mature form without the signal and transit peptide (Phaeodactylum tricornutum CCAP 1055/1); test: SEC; Superdex 200 (10/300) Increase, 0.5 ml/min, 20 mM Tris-HCl, 10% glycerol, pH 7.5, 300 mM NaCl (low salt); calibrated with five protein standards
[4] = target: PtIDH2 L742F mutant (Phaeodactylum tricornutum CCAP 1055/1); test: SEC; mutant forms of PtIDH2, Superdex 200 (10/300), 0.5 ml/min; salt of the buffer not stated for this panel
[5] = target: PtIDH2 V609L mutant (Phaeodactylum tricornutum CCAP 1055/1); test: as above
[6] = target: PtIDH2 A718P mutant (Phaeodactylum tricornutum CCAP 1055/1); test: as above
purified protein [7] = substrate: NC(=O)c1ccc[n+]([C@@H]2O[C@H](COP(=O)(O)OP(=O)(O)OC[C@H]3O[C@@H](n4cnc5c(N)ncnc54)[C@H](OP(=O)(O)O)[C@@H]3O)[C@@H](O)[C@H]2O)c1; test: purified protein; assay type: biochemical, Phaeodactylum tricornutum; settings: 50 mM Tris-HCl pH 8.0, 25 °C
purified protein [8] = substrate: O=C(O)CC(C(=O)O)C(O)C(=O)O; test: purified protein; assay type: biochemical, Phaeodactylum tricornutum; settings: Mn2+ 2.0 mM, 0.5 mM NADP+ fixed, 50 mM Tris-HCl pH 8.0, 25 °C, DL-isocitrate used
purified protein [9] = substrate: NC(=O)c1ccc[n+]([C@@H]2O[C@H](COP(=O)(O)OP(=O)(O)OC[C@H]3O[C@@H](n4cnc5c(N)ncnc54)[C@H](O)[C@@H]3O)[C@@H](O)[C@H]2O)c1; test: purified protein; assay type: biochemical, Phaeodactylum tricornutum; settings: DL-isocitrate, 50 mM Tris-HCl pH 8.0, 25 °C, metal not given (wild-type is the Mn2+ value)
[10] = Mn2+ 2.0 mM, 1.0 mM DL-isocitrate fixed
[11] = DL-isocitrate, metal not given (wild-type is the Mn2+ value)

stoichiometry N [1]: 4
stoichiometry N [2]: 2
stoichiometry N [3]: 4
Molecule: Phaeodactylum tricornutum NADP+-specific isocitrate dehydrogenase 2 (PtIDH2), mature form without the signal and transit peptide (enzyme)

stoichiometry N [4]: 4
Molecule: PtIDH2 L742F mutant (enzyme)

stoichiometry N [5]: 4
Molecule: PtIDH2 V609L mutant (enzyme)

stoichiometry N [6]: 4
Molecule: PtIDH2 A718P mutant (enzyme)

B1: PtIDH2 (Phaeodactylum tricornutum CCAP 1055/1) (protein)
chain: PPTSNHRHQPLEHARGSILYTETDEAPALATFSLYPVISKFSALANVDIVPCDISVAGRVLAAFPECLKPSQRVPDNLSYLGKKALEADCAIVKLPNISAPLNQLLECVNELRHKGYDVPLYPHEPSNVEETDVKHRYDKLMGSAVNPVLREGNSDRRVAAPVKAYAQKNPHRMGLWSKASRTHVAHMETGDFYETEQSAVMALPTSVSIVLATKNEGEIVLKAETPLEEGEVVDASRMSVKSLRDFYEREMQDAKDSELMLSLHLKATMMKVSDPIMFGHAIRVFFQDAFDKHGEVLASIGANPNGGLGSVYETIKSKLPADQAATIQADFEACFEDRPWLAMVDSDKGITNLHAPNDIIIDASMPVVVRDSGKMWNKLGELEDVKCLIPDRCYATMYQEVLSYVKTKGQFDVATMGSVANVGLMAKKAEEYGSHDKTFEIPSDGRVVVKDNNTGEVYFEHVVNAGDVWRMCQTKDVAIRDWVRLAVERARATGDRTIFWLDKRRAHDASLIKKVNTYLKDHDTDGLDISIMRPVDAVRISMERATDGKNTISVTGNVLRDYLTDLFPILELGTSAKMLSIVPLLAGGGLYETGAGGSAPKHVQQFVKEGHLRWDSLGEYLALAVALEGLADTAGNPKAKILGDCLNKAVGRILTNRKSPSRVVNQIDNRATNFYVSLYWADFLQQEDPSYKAIFESLTENRGKIVEEFSQCQGTAVDLGGYYLFDPAKTKAAMNPSPTLNKILSSFGPDMN
notes: mature form without putative signal and transit peptide (residues 1-58 of 811 removed), 753 residues, codon-optimized, 6xHis tag from pET-28b (NdeI/XhoI), E. coli Rosetta (DE3); ~80 kDa subunit (theoretical ~82 kDa), ~320 kDa homotetramer; N-term of insert after Met: FRSSTVL (from primer); C-term SSFGPDMN (from primers)
Km (purified protein [7]; [10]): 37.37 ± 4.02 µM
kcat (purified protein [7]; [10]): 119 ± 11 s⁻¹
kcat/Km (purified protein [7]; [10]): 3.22e+06 M⁻¹ s⁻¹
Km (purified protein [8]): 42.69 ± 8.2 µM

B2: PtIDH2 (Phaeodactylum tricornutum CCAP 1055/1; H661L/R672D) (protein)
chain: PPTSNHRHQPLEHARGSILYTETDEAPALATFSLYPVISKFSALANVDIVPCDISVAGRVLAAFPECLKPSQRVPDNLSYLGKKALEADCAIVKLPNISAPLNQLLECVNELRHKGYDVPLYPHEPSNVEETDVKHRYDKLMGSAVNPVLREGNSDRRVAAPVKAYAQKNPHRMGLWSKASRTHVAHMETGDFYETEQSAVMALPTSVSIVLATKNEGEIVLKAETPLEEGEVVDASRMSVKSLRDFYEREMQDAKDSELMLSLHLKATMMKVSDPIMFGHAIRVFFQDAFDKHGEVLASIGANPNGGLGSVYETIKSKLPADQAATIQADFEACFEDRPWLAMVDSDKGITNLHAPNDIIIDASMPVVVRDSGKMWNKLGELEDVKCLIPDRCYATMYQEVLSYVKTKGQFDVATMGSVANVGLMAKKAEEYGSHDKTFEIPSDGRVVVKDNNTGEVYFEHVVNAGDVWRMCQTKDVAIRDWVRLAVERARATGDRTIFWLDKRRAHDASLIKKVNTYLKDHDTDGLDISIMRPVDAVRISMERATDGKNTISVTGNVLRDYLTDLFPILELGTSAKMLSIVPLLAGGGLYETGAGGSAPKLVQQFVKEGHLDWDSLGEYLALAVALEGLADTAGNPKAKILGDCLNKAVGRILTNRKSPSRVVNQIDNRATNFYVSLYWADFLQQEDPSYKAIFESLTENRGKIVEEFSQCQGTAVDLGGYYLFDPAKTKAAMNPSPTLNKILSSFGPDMN
notes: as for B1
Km (purified protein [9]): 10,271 ± 1,448 μM
kcat (purified protein [9]): 7.22 ± 0.6 s⁻¹
kcat/Km (purified protein [9]): 700 M⁻¹ s⁻¹
Km (purified protein [7]; [11]): 47,650 ± 8,344 μM
kcat (purified protein [7]; [11]): 22.1 ± 5.5 s⁻¹
kcat/Km (purified protein [7]; [11]): 500 M⁻¹ s⁻¹

B3: PtIDH2 (Phaeodactylum tricornutum CCAP 1055/1; H661L/R672D/R721S) (protein)
chain: PPTSNHRHQPLEHARGSILYTETDEAPALATFSLYPVISKFSALANVDIVPCDISVAGRVLAAFPECLKPSQRVPDNLSYLGKKALEADCAIVKLPNISAPLNQLLECVNELRHKGYDVPLYPHEPSNVEETDVKHRYDKLMGSAVNPVLREGNSDRRVAAPVKAYAQKNPHRMGLWSKASRTHVAHMETGDFYETEQSAVMALPTSVSIVLATKNEGEIVLKAETPLEEGEVVDASRMSVKSLRDFYEREMQDAKDSELMLSLHLKATMMKVSDPIMFGHAIRVFFQDAFDKHGEVLASIGANPNGGLGSVYETIKSKLPADQAATIQADFEACFEDRPWLAMVDSDKGITNLHAPNDIIIDASMPVVVRDSGKMWNKLGELEDVKCLIPDRCYATMYQEVLSYVKTKGQFDVATMGSVANVGLMAKKAEEYGSHDKTFEIPSDGRVVVKDNNTGEVYFEHVVNAGDVWRMCQTKDVAIRDWVRLAVERARATGDRTIFWLDKRRAHDASLIKKVNTYLKDHDTDGLDISIMRPVDAVRISMERATDGKNTISVTGNVLRDYLTDLFPILELGTSAKMLSIVPLLAGGGLYETGAGGSAPKLVQQFVKEGHLDWDSLGEYLALAVALEGLADTAGNPKAKILGDCLNKAVGRILTNRKSPSSVVNQIDNRATNFYVSLYWADFLQQEDPSYKAIFESLTENRGKIVEEFSQCQGTAVDLGGYYLFDPAKTKAAMNPSPTLNKILSSFGPDMN
notes: as for B1
Km (purified protein [9]): 5,825 ± 307 μM
kcat (purified protein [9]): 7.67 ± 1.04 s⁻¹
kcat/Km (purified protein [9]): 1300 M⁻¹ s⁻¹
Km (purified protein [7]; [11]): 2,704 ± 142.8 μM
kcat (purified protein [7]; [11]): 1.01 ± 0.07 s⁻¹
kcat/Km (purified protein [7]; [11]): 400 M⁻¹ s⁻¹

B4: PtIDH2 (Phaeodactylum tricornutum CCAP 1055/1; H661L/K660T/R672D/R721S) (protein)
chain: PPTSNHRHQPLEHARGSILYTETDEAPALATFSLYPVISKFSALANVDIVPCDISVAGRVLAAFPECLKPSQRVPDNLSYLGKKALEADCAIVKLPNISAPLNQLLECVNELRHKGYDVPLYPHEPSNVEETDVKHRYDKLMGSAVNPVLREGNSDRRVAAPVKAYAQKNPHRMGLWSKASRTHVAHMETGDFYETEQSAVMALPTSVSIVLATKNEGEIVLKAETPLEEGEVVDASRMSVKSLRDFYEREMQDAKDSELMLSLHLKATMMKVSDPIMFGHAIRVFFQDAFDKHGEVLASIGANPNGGLGSVYETIKSKLPADQAATIQADFEACFEDRPWLAMVDSDKGITNLHAPNDIIIDASMPVVVRDSGKMWNKLGELEDVKCLIPDRCYATMYQEVLSYVKTKGQFDVATMGSVANVGLMAKKAEEYGSHDKTFEIPSDGRVVVKDNNTGEVYFEHVVNAGDVWRMCQTKDVAIRDWVRLAVERARATGDRTIFWLDKRRAHDASLIKKVNTYLKDHDTDGLDISIMRPVDAVRISMERATDGKNTISVTGNVLRDYLTDLFPILELGTSAKMLSIVPLLAGGGLYETGAGGSAPTLVQQFVKEGHLDWDSLGEYLALAVALEGLADTAGNPKAKILGDCLNKAVGRILTNRKSPSSVVNQIDNRATNFYVSLYWADFLQQEDPSYKAIFESLTENRGKIVEEFSQCQGTAVDLGGYYLFDPAKTKAAMNPSPTLNKILSSFGPDMN
notes: as for B1
Km (purified protein [9]): 11,479 ± 299 μM
kcat (purified protein [9]): 2.25 ± 0.18 s⁻¹
kcat/Km (purified protein [9]): 200 M⁻¹ s⁻¹
